Reference: patent US20250270343A1 (Alector, published 2025)
Numbering of substitutions follows the chain as printed.

How the values were obtained:
[1] = molecular target: T1, full-length untagged human GPNMB expressed on cells (human, UniProt Q14956 23-572); assay: FACS, FS293-huGPNMB+ cells
T1 construct: also used here for GPNMB on human monocyte-derived macrophages in the functional assays; also called huGPNMB; Freestyle293-huGPNMB+
T1 sequence: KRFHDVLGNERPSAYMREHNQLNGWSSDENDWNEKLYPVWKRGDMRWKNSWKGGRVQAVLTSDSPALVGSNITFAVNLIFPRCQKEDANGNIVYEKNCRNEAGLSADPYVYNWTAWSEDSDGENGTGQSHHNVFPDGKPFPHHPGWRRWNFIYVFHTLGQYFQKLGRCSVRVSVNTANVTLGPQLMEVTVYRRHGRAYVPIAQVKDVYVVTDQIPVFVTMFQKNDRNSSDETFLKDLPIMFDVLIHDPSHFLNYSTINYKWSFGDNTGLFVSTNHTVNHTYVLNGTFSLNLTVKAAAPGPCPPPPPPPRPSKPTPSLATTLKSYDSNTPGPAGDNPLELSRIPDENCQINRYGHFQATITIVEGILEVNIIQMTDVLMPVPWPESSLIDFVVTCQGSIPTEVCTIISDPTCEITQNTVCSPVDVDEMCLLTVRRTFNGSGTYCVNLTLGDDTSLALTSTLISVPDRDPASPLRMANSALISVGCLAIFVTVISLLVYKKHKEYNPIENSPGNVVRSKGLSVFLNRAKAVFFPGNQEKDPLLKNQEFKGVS
Protocol: Recombinant anti-GPNMB antibodies of the present disclosure were examined for their ability to bind human and/or mouse GPNMB expressed on Freestyle293-huGPNMB+ or B16F10 cells, respectively. B16F10 cells are a murine melanoma cell line from a C57BL/6J mouse that endogenously express high levels of mouse GPNMB. The antibodies were also tested for their ability to bind to a human macrophage cell line (U937 cells) engineered to express human GPNMB. Cells were harvested, plated at 100,000 cells/well in a 96-well round bottom plate, and incubated in 100 μl FACS buffer (PBS containing 2% FBS, 2 mM EDTA) containing anti-GPNMB monoclonal antibodies of the present disclosure for 30 minutes on ice. Cells were then washed and incubated in 100 ul FACS buffer containing 1 μg/ml APC-conjugated anti-human IgG secondary antibody for 30 minutes in ice. Cells were washed twice in cold FACS buffer and acquired on a BD FACS Canto. Data analysis and calculation of MFI values was performed with FlowJo (TreeStar) software version 10.0.7.
Importantly, several anti-GPNMB antibodies of the present disclosure also bound to the human macrophage cell line U937 cells engineered to express human GPNMB (U937/huGPNMB+) (FIG. 2C). In FIG. 2C, the first data point in each pair corresponds to U937/huGPNMB+ cells, and the second data point in each pair corresponds to U937/huGPNMB− cells. No anti-GPNMB antibodies bound to U937 cells deficient in human GPNMB expression (U937/huGPNMB−).

[2] = molecular target: T2, soluble cynomolgus GPNMB (recombinant extracellular domain) (cynomolgus, UniProt Q14956 23-499 (human entry), limits assumed); assay: SPR Carterra, Ab immobilized
T2 chain: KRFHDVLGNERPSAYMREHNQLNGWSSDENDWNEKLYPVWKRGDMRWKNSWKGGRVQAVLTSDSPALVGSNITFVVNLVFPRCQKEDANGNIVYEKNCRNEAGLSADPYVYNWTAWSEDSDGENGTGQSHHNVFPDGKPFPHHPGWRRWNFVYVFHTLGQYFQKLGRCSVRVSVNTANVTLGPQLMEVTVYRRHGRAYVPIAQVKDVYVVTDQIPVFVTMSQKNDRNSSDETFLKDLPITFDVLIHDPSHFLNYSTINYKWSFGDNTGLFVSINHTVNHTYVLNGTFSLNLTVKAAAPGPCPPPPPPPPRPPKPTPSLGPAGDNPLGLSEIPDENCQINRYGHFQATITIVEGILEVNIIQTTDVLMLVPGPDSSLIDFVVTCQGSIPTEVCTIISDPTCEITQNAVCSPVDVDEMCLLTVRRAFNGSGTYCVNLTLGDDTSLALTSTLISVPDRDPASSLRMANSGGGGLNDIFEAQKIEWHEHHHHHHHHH
Summary of the method: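 Antibodies amine-coupled on HC200M chip in a 96-spot array; recombinant GPNMB ECD analytes injected at 2.5–600 nM, lowest to highest, without regeneration. Running buffer HBS-EP+ with 0.5 mg/ml BSA; two buffer blanks between species series. Kinetics fitted to yield affinity estimates.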

[3] = molecular target: T1, full-length untagged human GPNMB …; assay: FACS titration, FS293-huGPNMB+ cells
Protocol: Cell-based binding measurements were also performed to measure the apparent affinities of anti-GPNMB antibodies of the present disclosure to cell-surface expressed GPNMB. Serial dilutions of the monoclonal anti-GPNMB antibodies were added to 100,000 Freestyle293-huGPNMB+ or B16F10 cells and allowed to achieve binding equilibrium at 4° C. After addition of fluorescently labeled secondary antibody and brief washing steps, MFI values as a function of titrated antibody concentration was recorded via FACS analysis. Curves were fit using nonlinear regression analysis with Graphpad Prism 6 software.

B1: anti-GPNMB antibody GPN-34 (antibody, human IgG1, V domains shown)
VH: EVKLVESGGGLVQPGRSLKLSCAASGFNFYDYWMGWVRQAPGKGLEWIGEINKDSRTINYTPFLKDRFTISRDNAQNTLYLQMSKLGSEDTAIYYCAREGRVPFDYWGQGVMVTVSS
VL: DIQMTQSPSSMSVSLGDTVTIPCRASQDVGSYVNWFQQKPGKSPRHMIYRATNLADGVPSRFSGSRSGADYSLTISSLESEDVADYHCQQYAEYPLTFGSGTKLEIK
notes: chimeric
MFI fold over background [1]: 125 fold | Kd [2]: 0.4 nM | koff [2]: 0.00011 s⁻¹ | kon [2]: 250000 M⁻¹ s⁻¹ | EC50 [3]: 0.41 nM

B2: anti-GPNMB antibody GPN-24 (antibody, human IgG1, V domains shown)
VH: QVQLQQPGAELVKPGASVKMSCKASGYTFTSYWITWVKQRPGQGLEWIGDIHPGSGRSNYNEKFKNKATLNVDTSSSTVYMQLSSLTSEDSAVYYCARDYLFAYWGQGTLVTVSA
VL: DIQMTQSPSSLSASLGERVSLTCRASQEISGYLSWLQQKPDGTIKRLIYSTSTLDSGVPKRFSGSRSGSDYSLTISSLESEDFADYYCLQYTSSPPTFGGGTKLEIK
notes: chimeric
MFI fold over background [1]: 59.9 fold | Kd [2]: 8.3 nM | koff [2]: 0.00061 s⁻¹ | kon [2]: 77000 M⁻¹ s⁻¹ | EC50 [3]: 0.22 nM

B3: anti-GPNMB antibody GPN-30 (antibody, human IgG1, V domains shown)
VH: EVQLQQSGPELVNPGASVRISCKASGYSFTGYYMNWVKQSPEKSLEWIGEINPNTGFTTYNQNFKAKATLTVDKSSSTAYIQLKSLTSEDSAVYYCTRPSPSFDYWGQGTTLTVSS
VL: B2 VL with V19G, Y32H, S50A, T51A, T92A, S94Y, P96Y
notes: chimeric
MFI fold over background [1]: 34.4 fold | Kd [2]: 5.1 nM | koff [2]: 0.00013 s⁻¹ | kon [2]: 26000 M⁻¹ s⁻¹ | EC50 [3]: 1.12 nM

B4: anti-GPNMB antibody GPN-26 (antibody, human IgG1, V domains shown)
VH: EVQLQQSGPELVKPGASVKISCKASGYSFTGYYMNWVRQSPEKSLEWIGEINPSTGITTYNQKFKAKATLTVDKSSNTAFMQLKSLTSEDSAVYYCARPASWFDYWGQGTLVTVSA
VL: B2 VL with Y32H, S50A, T51A, T92A, S94Y, P96Y
notes: chimeric
MFI fold over background [1]: 46.3 fold | Kd [2]: 8.9 nM | koff [2]: 0.00027 s⁻¹ | kon [2]: 31000 M⁻¹ s⁻¹ | EC50 [3]: 1.09 nM

B5: anti-GPNMB antibody GPN-22 (antibody, human IgG1, V domains shown)
VH: QVQLQQPGAERVKPGASVKMSCKASGYTFTSYWITWVKQRPGQGLEWIGDIFPGSGSTNYHEKFKSKATLTVDTSSSTAYMQLSSLTSEDSAVYYCSRGYFGSSFSDYWGQGTSVTVSS
VL: B2 VL with A25T, T92A, G100S
notes: chimeric
MFI fold over background [1]: 44.8 fold | Kd [2]: 104 nM | koff [2]: 0.0033 s⁻¹ | kon [2]: 32000 M⁻¹ s⁻¹ | EC50 [3]: 0.33 nM

B6: anti-GPNMB antibody GPN-07 (antibody, human IgG1, V domains shown)
VH: QVQLQQSGAEQVKPGASVKLSCKASGYTFTSYYMYWVKQRPGQGLEWIGEINPSNGGTYFNEKFKSKATLTVDKSSSTAYMHLSSLTSEDSAVYYCTRGGTYYAYWGQGTLVTVSA
VL: B2 VL with I29M, Y32H, S50A, T51A, T92A, S94Y, P96Y
notes: chimeric
MFI fold over background [1]: 66.5 fold | Kd [2]: 11.3 nM | koff [2]: 0.00025 s⁻¹ | kon [2]: 22000 M⁻¹ s⁻¹ | EC50 [3]: 18.4 nM

B7: anti-GPNMB antibody GPN-31 (antibody, human IgG1, V domains shown)
VH: B4 VH with R38K, S44N, S54N, I57G, N77T, F80Y, A97T
VL: B2 VL with Y32H, S50A, T51A, S65R, T92A, S94Y, P96Y, E105A
notes: chimeric
MFI fold over background [1]: 53.8 fold | Kd [2]: 11.2 nM | koff [2]: 0.00036 s⁻¹ | kon [2]: 32000 M⁻¹ s⁻¹ | EC50 [3]: 0.76 nM

B8: anti-GPNMB antibody GPN-09 (antibody, human IgG1, V domains shown)
VH: B6 VH with Q11L, M34I, S66N, H82Q, T101N
VL: B2 VL with Y32H, S34G, S50A, T51A, S52L, T92A, S94Y, P96Y
notes: chimeric
MFI fold over background [1]: 35.1 fold | Kd [2]: 8.4 nM | koff [2]: 0.00012 s⁻¹ | kon [2]: 14000 M⁻¹ s⁻¹ | EC50 [3]: 1.31 nM

B9: anti-GPNMB antibody GPN-25 (antibody, human IgG1, V domains shown)
VH: B4 VH with R38K, S54G, T55S, N77S, F80Y, M81L, D104A
VL: B2 VL with L21F, T22I, Y32H, S50A, T51A, T92A, S94Y, P96Y
notes: chimeric
MFI fold over background [1]: 42.7 fold | Kd [2]: 7.4 nM | koff [2]: 0.0002 s⁻¹ | kon [2]: 30000 M⁻¹ s⁻¹ | EC50 [3]: 0.5 nM

B10: anti-GPNMB antibody GPN-35 (antibody, human IgG1, V domains shown)
VH: EVQLVESGGGSVRPGRSLKLSCAAAGFTFSDYYMTWVRQAPTKGLEWVASINHDGGGTYYRDSVKGRFTISRDNARSSLYLQMDSLRSEDTGTYYCTTRAGWHWGQGVMVTVSS
VL: DIQMTQSPASLSASLGETVSIECLASEDIYNYLTWYQQKPGKSPQVLIYSASGLQDGVPSRFSGSGSGRQYSLKINGLESEDAATYFCLQDSEYPLTFGSGTKLEIK
notes: chimeric
MFI fold over background [1]: 104 fold | EC50 [3]: 1.33 nM

B11: anti-GPNMB antibody GPN-11 (antibody, human IgG1, V domains shown)
VH: QVQLQQPGAELVKPGASVKLSCKASGYTFTSYWMHWVKQRPGQGLEWIGEINSSNGRTNYNEKFKTKATLTVDRSSSTAYMQLSSLTSEDSAVYYCARLGYYSGSPYPYYAMDCWGQGTSVTVSS
VL: DIQMTQSPASLSVSVGETVTITCRASENIYSNLAWYQQKQGKSPQLLVYAATNLADGVPSRFSGSGSGTQYSLKINSLQSEDFGSYYCQHFWNTPPTFGGGTKLEIK
notes: chimeric
MFI fold over background [1]: 56.2 fold | Kd [2]: 12.1 nM | koff [2]: 0.00095 s⁻¹ | kon [2]: 83000 M⁻¹ s⁻¹ | EC50 [3]: 0.3 nM

B12: anti-GPNMB antibody GPN-08 (antibody, human IgG1, V domains shown)
VH: QVQLQQPGAELVKPGASVKLSCRASGYTFTSYWLHWVKQRPGQGLEWIGEINPSDGRTNYIEKVKTKATLTVDKSSSTAYMQLSSLTSEDSAVYYCARSGGNYAWFAYWGQGTLVTVSA
VL: DIVMTQSHKFMSTSVGDRVSITCKASQDVSPSVAWYQQRPGQSPKLLIYSASYRYTGVPDRFTGSGSGTDFTFTISSVQAEDLAVYYCQQHYSIPLTFGAGTKLELK
notes: chimeric
MFI fold over background [1]: 74.4 fold | Kd [2]: 32.8 nM | koff [2]: 0.0015 s⁻¹ | kon [2]: 48000 M⁻¹ s⁻¹ | EC50 [3]: 0.87 nM

B13: anti-GPNMB antibody GPN-37 (antibody, human IgG1, V domains shown)
VH: EVQLVESGGGLVQPGRSLKLSCAASGFTFSSKSGMAWVRQAPTKGLEWVASISNGGGDTYYRDSVKGRFTISRDNAKNTQYLQMDSLRPEDTATYYCARHRDYGYDAYFDYWGQGVMVTVSS
VL: DIQMTQSPASLSASLGETVTIECLASEDIYSSLAWYQQKPGKSPQLLIYDASSLQDGVPSRFSGSESGTQYSLEINSLQSEDAATYFCQQHHDYPYTFGAGTKLELK
notes: chimeric
MFI fold over background [1]: 105 fold | EC50 [3]: 0.75 nM

B14: anti-GPNMB antibody GPN-01 (antibody, human IgG1, V domains shown)
VH: QVQLQQSGAELAKPGASVKLSCKASGYNFTNYCIHWVKQRPGQGLEWIGYINPSTGYTEYNQKFKDKATLTADKSSTTAYMQLSSLTSEDSAVYYCARGRYDEFTYWGQGTLVTVSA
VL: DIVLTQSPASLAVSLGQRATISCRASKSVSTSTYSYMHWYQQKPGQPPKLLIYLASNLESGVPARFSGSGSGTDFTLNIHPVEEEDAATYYCQHSRELPPTFGGGTKLEIK
notes: chimeric
MFI fold over background [1]: 43.2 fold | Kd [2]: 31 nM | koff [2]: 0.0034 s⁻¹ | kon [2]: 110000 M⁻¹ s⁻¹ | EC50 [3]: 0.17 nM
